For one assay, the target named is VEGF (UniProt P15692-4 27-191, limits assumed). Description: cell-based or functional assay.
Assay [1] concerns the target T1, VEGF-A165 (UniProt P15692-4 27-191).
T1 construct: analyte of the Biacore assays
Briefly: Biacore T200 SPR at 37 C, binder captured on Protein A chip, VEGF-A165 0.19 to 15 nM in five steps, 60 min dissociation, 1:1 Langmuir fit. The procedure:
FIGS. 14A-14F illustrate the results for a series of Biacore assays used to determine the affinity between Anti-VEGF agents and VEGF. Binding kinetics between molecules were measured using a Biacore T200 (GE Healthcare) at 37° C. in buffer HBS-EP+ containing 1 mg/mL BSA. […] The sensor chip surface was regenerated by 60 seconds injection of 10 mM Glycine, pH 1.7 at a flow rate of 50 μl/min. All sensorgrams were double reference subtracted and fit using a 1:1 Langmuir binding model.

Assay [2] addresses T1, VEGF-A165. Description: SPR (Biacore T200), 37 C, binder captured on a Protein A chip, VEGF-A165 0.19 to 15 nM flowed over, 1:1 Langmuir fit.
The target of assay [3] is T2, human IL-6 (human, UniProt P05231 30-212). Description: SPR (Biacore), purified antibody on Protein A chip, IL-6 flowed, 37 C. The procedure:
Antibodies were captured on a Protein A chip (GE) by injecting 1:20 cell supernatant dilutions at 10 μL/min for 60 seconds. […] The sensor chip was regenerated by a 60 seconds injection of 10 mM Glycine pH 1.7 at the flow rate of 50 μL/min. […] For this setup, 1 μg/mL of purified antibody was injected over a Protein A chip at 10 μL/min for 25 seconds. […] The sensor chip was regenerated by a 60 seconds injection of 10 mM Glycine pH 1.7 at flow rate of 50 μL/min. Data analysis for supernatant and purified samples were performed using BIAevaluation software (GE). All sensorgrams were double reference subtracted and fit using a 1:1 Langmuir binding model.

In assay [4] the target is T2, human IL-6. Description: SPR (Biacore), supernatant antibody on Protein A chip, IL-6 flowed, 37 C.

T1 sequence (P15692 other isoform, or with tags, fused parts or gaps limits assumed): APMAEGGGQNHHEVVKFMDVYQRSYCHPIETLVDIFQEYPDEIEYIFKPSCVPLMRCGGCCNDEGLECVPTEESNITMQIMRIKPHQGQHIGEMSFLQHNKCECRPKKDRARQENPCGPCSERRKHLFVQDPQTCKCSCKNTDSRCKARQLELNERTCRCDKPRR
T2 sequence (P05231 30-212 limits assumed): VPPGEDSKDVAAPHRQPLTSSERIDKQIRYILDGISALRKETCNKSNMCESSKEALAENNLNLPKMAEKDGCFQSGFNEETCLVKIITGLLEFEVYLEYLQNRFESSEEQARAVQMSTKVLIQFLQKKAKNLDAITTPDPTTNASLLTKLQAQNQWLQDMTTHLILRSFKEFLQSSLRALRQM
VEGF, sequence (P15692 other isoform, or with tags, fused parts or gaps limits assumed): as the sequence (P15692 other isoform, or with tags, fused parts or gaps limits assumed) above

B1: VEGFR-Anti-IL-6 (sequences 1A-2A-3H, light chain 4A) (other)
heavy: SDTGRPFVEMYSEIPEIIHMTEGRELVIPCRVTSPNITVTLKKFPLDTLIPDGKRIIWDSRKGFIISNATYKEIGLLTCEATVNGHLYKTNYLTHRQTNTIIDVVLSPSHGIELSVGEKLVLNCTARTELNVGIDFNWEYPSSKHQHKKLVNRDLKTQSGSEMKKFLSTLTIDGVTRSDQGLYTCAASSGLMTKKNSTFVRVHEKGGGGSGGGGSEVQLVESGGGLVQPGGSLRLSCAASGFTFSPFAISWVRQAPGKGLEWVAKISPGGSWTYYSDTVTDRFTFSLDTSKSTAYLQMNSLRAEDTAVYYCARQLWGYYALDVWGQGTLVTVSSASTKGPSVFPLAPSSKSTSGGTAALGCLVKDYFPEPVTVSWNSGALTSGVHTFPAVLQSSGLYSLSSVVTVPSSSLGTQTYICNVNHKPSNTKVDKKVEPKSCDKTHTCPPCPAPEAAGAPSVFLFPPKPKDTLMISRTPEVTCVVVDVSHEDPEVKFNWYVDGVEVHNAKTKPREEQYNSTYRVVSVLTVLHQDWLNGKEYKCKVSNKALPAPIEKTISKAKGQPREPQVYTLPPSREEMTKNQVSLTCLVKGFYPSDIAVEWESNGQPENNYKTTPPVLDSDGSFFLYSKLTVDKSRWQQGNVFSCSVMHEALHNHYTQKSLSCSPGK
light: DIQLTQSPSSLSASVGDRVTITCSASISVSYLYWYQQKPGKAPKLLIYDDSSLASGVPSRFSGSGSGTDFTLTISSLQPEDFATYYCQQWSGYPYTFGQGTKVEIKRTVAAPSVFIFPPSDEQLKSGTASVVCLLNNFYPREAKVQWKVDNALQSGNSQESVTEQDSKDSTYSLSSTLTLSKADYEKHKVYACEVTHQGLSSPVTKSFNRGEC
notes: linker 2A is the double Gly-Gly-Gly-Gly-Ser repeat
Regarding B1, the “cell-based VEGF stimulated VEGFR reporter assay (KDR/VEGF HEK293, luminescence), IC50” value with VEGF turned out to be 0.18 nM. In the assay with VEGF-A165 [1], this molecule registered a Kd of 0.00798 nM, a koff of 0.000603 s⁻¹ and a kon of 7.55e+07 M⁻¹ s⁻¹.

B2: VEGFR_variant_2-Anti-IL-6 (H95I) (other)
fusion: SDTGRPFVEMYSEIPEIIHMTEGRELVIPCRVTSPNITVTLKKFPLDTLIPDGKRIIWDSRKGFIISNATYKEIGLLTCEATVNGHLYKTNYLTIRQTNTIIDVVLSPSHGIELSVGEKLVLNCTARTELNVGIDFNWEYPSSKHQHKKLVNRDLKTQSGSEMKKFLSTLTIDGVTRSDQGLYTCAASSGLMTKKNSTFVRVHEKGGGGSGGGGSEVQLVESGGGLVQPGGSLRLSCAASGFTFSPFAISWVRQAPGKGLEWVAKISPGGSWTYYSDTVTDRFTFSLDTSKSTAYLQMNSLRAEDTAVYYCARQLWGYYALDVWGQGTLVTVSSASTKGPSVFPLAPSSKSTSGGTAALGCLVKDYFPEPVTVSWNSGALTSGVHTFPAVLQSSGLYSLSSVVTVPSSSLGTQTYICNVNHKPSNTKVDKKVEPKSCDKTHTCPPCPAPEAAGAPSVFLFPPKPKDTLMISRTPEVTCVVVDVSHEDPEVKFNWYVDGVEVHNAKTKPREEQYNSTYRVVSVLTVLHQDWLNGKEYKCKVSNKALPAPIEKTISKAKGQPREPQVYTLPPSREEMTKNQVSLTCLVKGFYPSDIAVEWESNGQPENNYKTTPPVLDSDGSFFLYSKLTVDKSRWQQGNVFSCSVMHEALHNHYTQKSLSCSPGK
light: DIQLTQSPSSLSASVGDRVTITCSASISVSYLYWYQQKPGKAPKLLIYDDSSLASGVPSRFSGSGSGTDFTLTISSLQPEDFATYYCQQWSGYPYTFGQGTKVEIKRTVAAPSVFIFPPSDEQLKSGTASVVCLLNNFYPREAKVQWKVDNALQSGNSQESVTEQDSKDSTYSLSSTLTLSKADYEKHKVYACEVTHQGLSSPVTKSFNRGEC
In the assay with VEGF-A165 [1], B2 had a Kd of 0.0143 nM, a koff of 0.00164 s⁻¹ and an association rate constant (kon) of 1.15e+08 M⁻¹ s⁻¹.

B3: VEGFR_variant_1-Anti-IL-6 (T94I) (other)
fusion: SDTGRPFVEMYSEIPEIIHMTEGRELVIPCRVTSPNITVTLKKFPLDTLIPDGKRIIWDSRKGFIISNATYKEIGLLTCEATVNGHLYKTNYLIHRQTNTIIDVVLSPSHGIELSVGEKLVLNCTARTELNVGIDFNWEYPSSKHQHKKLVNRDLKTQSGSEMKKFLSTLTIDGVTRSDQGLYTCAASSGLMTKKNSTFVRVHEKGGGGSGGGGSEVQLVESGGGLVQPGGSLRLSCAASGFTFSPFAISWVRQAPGKGLEWVAKISPGGSWTYYSDTVTDRFTFSLDTSKSTAYLQMNSLRAEDTAVYYCARQLWGYYALDVWGQGTLVTVSSASTKGPSVFPLAPSSKSTSGGTAALGCLVKDYFPEPVTVSWNSGALTSGVHTFPAVLQSSGLYSLSSVVTVPSSSLGTQTYICNVNHKPSNTKVDKKVEPKSCDKTHTCPPCPAPEAAGAPSVFLFPPKPKDTLMISRTPEVTCVVVDVSHEDPEVKFNWYVDGVEVHNAKTKPREEQYNSTYRVVSVLTVLHQDWLNGKEYKCKVSNKALPAPIEKTISKAKGQPREPQVYTLPPSREEMTKNQVSLTCLVKGFYPSDIAVEWESNGQPENNYKTTPPVLDSDGSFFLYSKLTVDKSRWQQGNVFSCSVMHEALHNHYTQKSLSCSPGK
light: DIQLTQSPSSLSASVGDRVTITCSASISVSYLYWYQQKPGKAPKLLIYDDSSLASGVPSRFSGSGSGTDFTLTISSLQPEDFATYYCQQWSGYPYTFGQGTKVEIKRTVAAPSVFIFPPSDEQLKSGTASVVCLLNNFYPREAKVQWKVDNALQSGNSQESVTEQDSKDSTYSLSSTLTLSKADYEKHKVYACEVTHQGLSSPVTKSFNRGEC
For B3, in the assay with VEGF-A165 [1], binding was characterised by a dissociation constant (Kd) of 0.0185 nM, the koff was 0.00199 s⁻¹ and the kon is 1.08e+08 M⁻¹ s⁻¹.

B4: VEGFR_variant_3-Anti-IL-6 (T94I/H95I) (other)
fusion: SDTGRPFVEMYSEIPEIIHMTEGRELVIPCRVTSPNITVTLKKFPLDTLIPDGKRIIWDSRKGFIISNATYKEIGLLTCEATVNGHLYKTNYLIIRQTNTIIDVVLSPSHGIELSVGEKLVLNCTARTELNVGIDFNWEYPSSKHQHKKLVNRDLKTQSGSEMKKFLSTLTIDGVTRSDQGLYTCAASSGLMTKKNSTFVRVHEKGGGGSGGGGSEVQLVESGGGLVQPGGSLRLSCAASGFTFSPFAISWVRQAPGKGLEWVAKISPGGSWTYYSDTVTDRFTFSLDTSKSTAYLQMNSLRAEDTAVYYCARQLWGYYALDVWGQGTLVTVSSASTKGPSVFPLAPSSKSTSGGTAALGCLVKDYFPEPVTVSWNSGALTSGVHTFPAVLQSSGLYSLSSVVTVPSSSLGTQTYICNVNHKPSNTKVDKKVEPKSCDKTHTCPPCPAPEAAGAPSVFLFPPKPKDTLMISRTPEVTCVVVDVSHEDPEVKFNWYVDGVEVHNAKTKPREEQYNSTYRVVSVLTVLHQDWLNGKEYKCKVSNKALPAPIEKTISKAKGQPREPQVYTLPPSREEMTKNQVSLTCLVKGFYPSDIAVEWESNGQPENNYKTTPPVLDSDGSFFLYSKLTVDKSRWQQGNVFSCSVMHEALHNHYTQKSLSCSPGK
light: DIQLTQSPSSLSASVGDRVTITCSASISVSYLYWYQQKPGKAPKLLIYDDSSLASGVPSRFSGSGSGTDFTLTISSLQPEDFATYYCQQWSGYPYTFGQGTKVEIKRTVAAPSVFIFPPSDEQLKSGTASVVCLLNNFYPREAKVQWKVDNALQSGNSQESVTEQDSKDSTYSLSSTLTLSKADYEKHKVYACEVTHQGLSSPVTKSFNRGEC
In the case of B4, in the assay with VEGF-A165 [1], binding was put at a Kd of 0.0187 nM, the koff was 0.00266 s⁻¹ and the kon is 1.42e+08 M⁻¹ s⁻¹.

B5: VEGFR-Fc (VEGF trap Fc fusion, sequence 6A) (Fc fusion)
chain: SDTGRPFVEMYSEIPEIIHMTEGRELVIPCRVTSPNITVTLKKFPLDTLIPDGKRIIWDSRKGFIISNATYKEIGLLTCEATVNGHLYKTNYLTHRQTNTIIDVVLSPSHGIELSVGEKLVLNCTARTELNVGIDFNWEYPSSKHQHKKLVNRDLKTQSGSEMKKFLSTLTIDGVTRSDQGLYTCAASSGLMTKKNSTFVRVHEKDKTHTCPPCPAPEAAGAPSVFLFPPKPKDTLMISRTPEVTCVVVDVSHEDPEVKFNWYVDGVEVHNAKTKPREEQYNSTYRVVSVLTVLHQDWLNGKEYKCKVSNKALPAPIEKTISKAKGQPREPQVYTLPPSREEMTKNQVSLTCLVKGFYPSDIAVEWESNGQPENNYKTTPPVLDSDGSFFLYSKLTVDKSRWQQGNVFSCSVMHEALHNHYTQKSLSCSPGK
notes: VEGF trap with engineered IgG1 Fc (L234A, L235A, G237A, L443C); also called VEGFR-Trap Fc fusion
In the assay with VEGF-A165 [2], B5 had a Kd of 0.0102 nM, a koff of 9.29e-05 s⁻¹ and a kon of 9.14e+06 M⁻¹ s⁻¹.

B6: anti-IL-6 antibody, heavy chain T63Q, G66D / light chain M32L, M50D, N52S, M88Q (antibody, human IgG1, V domains shown)
VH: EVQLVESGGGLVQPGGSLRLSCAASGFTFSPFAMSWVRQAPGKGLEWVAKISPGGSWTYYSDQVTDRFTFSLDTSKSTAYLQMNSLRAEDTAVYYCARQLWGYYALDIWGQGTLVTVSS
VL: DIQLTQSPSSLSASVGDRVTITCSASISVSYLYWYQQKPGKAPKLLIYDDSSLASGVPSRFSGSGSGTDFTLTISSLQPEDFATYYCQQWSGYPYTFGQGTKVEIK
notes: Human IgG1
Consider B6, for which, in the assay with human IL-6 [3], binding was put at a Kd of 0.201 nM, the koff came to 0.000341 s⁻¹ and the kon came out at 1.69e+06 M⁻¹ s⁻¹. In the assay with human IL-6 [4], the Kd was found to be 0.259 nM, the koff turned out to be 0.000461 s⁻¹ and the kon came out at 1.78e+06 M⁻¹ s⁻¹.

B7: anti-IL-6 antibody, heavy chain T65Q, G66D / light chain M32L, M50D, N52S, M88Q (antibody, human IgG1, V domains shown)
VH: EVQLVESGGGLVQPGGSLRLSCAASGFTFSPFAMSWVRQAPGKGLEWVAKISPGGSWTYYSDTVQDRFTFSLDTSKSTAYLQMNSLRAEDTAVYYCARQLWGYYALDIWGQGTLVTVSS
VL: DIQLTQSPSSLSASVGDRVTITCSASISVSYLYWYQQKPGKAPKLLIYDDSSLASGVPSRFSGSGSGTDFTLTISSLQPEDFATYYCQQWSGYPYTFGQGTKVEIK
notes: Human IgG1
In the assay with human IL-6 [3], B7 showed a Kd of 0.209 nM, a koff of 0.00038 s⁻¹ and a kon of 1.82e+06 M⁻¹ s⁻¹. In the assay with human IL-6 [4], this molecule registered a Kd of 0.258 nM, a koff of 0.000562 s⁻¹ and a kon of 2.18e+06 M⁻¹ s⁻¹.

These data come from patent publication US20240209076A1 (KODIAK SCIENCES, published 2024).
